According to patent publication US20240327503A1 (University of Texas, published 2024):

Target: spike protein of SARS-COV-2 WA1 live virus (SARS-CoV-2, UniProt P0DTC2 14-1273)
Experiment: cell-based or functional assay

B1: A7V3 (antibody, V domains shown)
VH: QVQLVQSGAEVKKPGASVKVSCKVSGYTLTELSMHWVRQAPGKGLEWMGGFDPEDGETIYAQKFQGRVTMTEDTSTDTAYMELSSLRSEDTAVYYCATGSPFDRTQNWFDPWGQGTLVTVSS
VL: QSVVTQPPSVSAAPGQKVTISCSGSSSNIGNNYVSWYQQLPGTAPKLLIYDNNKRPSGIPDRFSGSKSGTSATLGITGLQTGDEADYYCGTWDSSLSAVVFGGGTKLTVL
IC50, live virus neutralization of SARS-CoV-2 WA1: 0.95 nM
